# Bridge positions count the residues as written; N and C are the ends. Square brackets hold non-standard residues; d marks the D form. Ends that are not written are not given here. d2Nal = N[C@H](Cc1ccc2ccccc2c1)C(=O)O; Bta = N[C@@H](Cc1csc2ccccc12)C(=O)O; Nle = CCCC[C@H](N)C(=O)O
# B1: Ac-c(Cys-Glu-His-D-2-Nal-Arg-Bal-Ala-Cys)-Pro-Pro-Lys-Asp-NH2 (peptide)
# peptide: Ac-CEH[d2Nal]R[Bta]ACPPKD-NH2
# modifications: disulfide 1-8
# SMILES: CC(=O)N[C@H]1CSSC[C@@H](C(=O)N2CCC[C@H]2C(=O)N2CCC[C@H]2C(=O)N[C@@H](CCCCN)C(=O)N[C@@H](CC(=O)O)C(N)=O)NC(=O)[C@H](C)NC(=O)[C@H](Cc2csc3ccccc23)NC(=O)[C@H](CCCNC(=N)N)NC(=O)[C@@H](Cc2ccc3ccccc3c2)NC(=O)[C@H](Cc2c[nH]cn2)NC(=O)[C@H](CCC(=O)O)NC1=O
# B2: Hydantoin(C(O)-(Nle-Gly))-c(Cys-D-Ala-His-D-Phe-Arg-Trp-Cys)-NH2 (peptide)
# peptide: [Nle]GC[dA]H[dF]RWC-NH2
# modifications: disulfide 3-9; also: N-terminal hydantoin: C(O) bridges X1 N-terminal N and G2 backbone N, bridge at N via C(O), other end not in the chain
# B3: Ac-Phe-Arg-c(Cys-D-Ala-His-D-Phe-Arg-Trp-Cys)-NH2 (peptide)
# peptide: Ac-FRC[dA]H[dF]RWC-NH2
# modifications: disulfide 3-9
# SMILES: CC(=O)N[C@@H](Cc1ccccc1)C(=O)N[C@@H](CCCNC(=N)N)C(=O)N[C@H]1CSSC[C@@H](C(N)=O)NC(=O)[C@H](Cc2c[nH]c3ccccc23)NC(=O)[C@H](CCCNC(=N)N)NC(=O)[C@@H](Cc2ccccc2)NC(=O)[C@H](Cc2c[nH]cn2)NC(=O)[C@@H](C)NC1=O
# Legend:
# Test in all cases: [125I]-NDP-α-MSH competition, membranes
# [1] = target: human melanocortin receptor subtype 1 (hMC1-R) (human), Q01726
# Chain of human melanocortin receptor subtype 1 (hMC1-R) (human), Q01726 (Q01726 whole entry): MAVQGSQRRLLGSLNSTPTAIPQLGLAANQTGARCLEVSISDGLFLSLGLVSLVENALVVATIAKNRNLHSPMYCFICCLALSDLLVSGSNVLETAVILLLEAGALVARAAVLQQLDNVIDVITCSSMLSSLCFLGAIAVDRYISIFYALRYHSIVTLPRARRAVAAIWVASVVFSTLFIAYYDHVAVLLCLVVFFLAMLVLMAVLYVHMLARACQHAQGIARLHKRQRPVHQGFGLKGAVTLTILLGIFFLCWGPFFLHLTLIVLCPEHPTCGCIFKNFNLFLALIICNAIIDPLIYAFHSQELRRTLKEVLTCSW
# [2] = target: human melanocortin receptor subtype 3 (hMC3-R) (human), P41968
# Chain of human melanocortin receptor subtype 3 (hMC3-R) (human), P41968 (P41968 whole entry): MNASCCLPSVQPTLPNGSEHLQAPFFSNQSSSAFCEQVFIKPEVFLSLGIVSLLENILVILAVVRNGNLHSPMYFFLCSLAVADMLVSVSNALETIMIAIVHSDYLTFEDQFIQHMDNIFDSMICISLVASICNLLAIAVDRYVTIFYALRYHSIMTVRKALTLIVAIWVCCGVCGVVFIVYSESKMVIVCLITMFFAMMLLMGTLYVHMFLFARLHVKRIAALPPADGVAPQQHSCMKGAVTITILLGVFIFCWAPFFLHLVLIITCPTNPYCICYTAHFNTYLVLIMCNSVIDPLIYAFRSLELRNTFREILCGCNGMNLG
# [3] = target: human melanocortin receptor subtype 4 (hMC4-R) (human), P32245
# Chain of human melanocortin receptor subtype 4 (hMC4-R) (human), P32245 (P32245 whole entry): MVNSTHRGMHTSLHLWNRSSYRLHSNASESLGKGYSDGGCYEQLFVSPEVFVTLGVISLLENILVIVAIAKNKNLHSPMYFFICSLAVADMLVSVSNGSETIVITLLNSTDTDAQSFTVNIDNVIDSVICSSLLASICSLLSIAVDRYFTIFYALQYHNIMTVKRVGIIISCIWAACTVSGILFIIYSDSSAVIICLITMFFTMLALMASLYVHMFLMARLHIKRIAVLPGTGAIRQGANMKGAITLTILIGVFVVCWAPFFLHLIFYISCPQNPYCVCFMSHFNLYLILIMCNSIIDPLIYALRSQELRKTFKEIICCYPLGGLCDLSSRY
# [4] = target: human melanocortin receptor subtype 5 (hMC5-R) (human), P33032
# Chain of human melanocortin receptor subtype 5 (hMC5-R) (human), P33032 (P33032 whole entry): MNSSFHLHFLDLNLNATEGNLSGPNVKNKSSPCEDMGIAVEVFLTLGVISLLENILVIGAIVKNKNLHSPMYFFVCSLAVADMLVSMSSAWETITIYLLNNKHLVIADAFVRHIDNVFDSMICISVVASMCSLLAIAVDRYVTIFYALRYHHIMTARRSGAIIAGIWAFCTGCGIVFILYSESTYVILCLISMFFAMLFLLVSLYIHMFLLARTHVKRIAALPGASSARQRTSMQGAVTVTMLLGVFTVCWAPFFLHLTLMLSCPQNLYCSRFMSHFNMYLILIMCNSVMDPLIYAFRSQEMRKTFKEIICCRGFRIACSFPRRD
Binder,Ki [1] [nM],Ki [2] [nM],Ki [3] [nM],Ki [4] [nM]
B1,163,23,0.586,844
B2,7.92,46.4,6.7,21.3
GRC[dA]H[dF]RWC-NH2 (disulfide 3-9; also: hydantoin ring from C(O) with Gly1-Arg2) [Hydantoin(C(O)-(Gly-Arg))-c(Cys-D-Ala-His-D-Phe-Arg-Trp-Cys)-NH2],1.14,1.7,4.53,783
GGC[dA]H[dF]RWC-NH2 (disulfide 3-9; also: hydantoin ring from C(O) with Gly1-Gly2) [Hydantoin(C(O)-(Gly-Gly))-c(Cys-D-Ala-His-D-Phe-Arg-Trp-Cys)-NH2],20.9,69.7,8.32,50
VGC[dA]H[dF]RWC-NH2 (disulfide 3-9; also: hydantoin ring from C(O) with Val1-Gly2) [Hydantoin(C(O)-(Val-Gly))-c(Cys-D-Ala-His-D-Phe-Arg-Trp-Cys)-NH2],15.3,160,8.66,33.4
LGC[dA]H[dF]RWC-NH2 (disulfide 3-9; also: hydantoin ring from C(O) with Leu1-Gly2) [Hydantoin(C(O)-(Leu-Gly))-c(Cys-D-Ala-His-D-Phe-Arg-Trp-Cys)-NH2],19.3,331,26.7,44.6
AGC[dA]H[dF]RWC-NH2 (disulfide 3-9; also: hydantoin ring: C(O) bridging Ala-Gly) [Hydantoin(C(O)-(Ala-Gly))-c(Cys-D-Ala-His-D-Phe-Arg-Trp-Cys)-NH2],13.9,38.4,5.73,18.9
IGC[dA]H[dF]RWC-NH2 (disulfide 3-9; also: hydantoin ring from C(O) with Ile1-Gly2) [Hydantoin(C(O)-(Ile-Gly))-c(Cys-D-Ala-His-D-Phe-Arg-Trp-Cys)-NH2],11.6,194,11.5,28.9
B3,1.48,14.8,2.34,491
RGC[dA]H[dF]RWC-NH2 (disulfide 3-9; also: hydantoin ring: C(O) bridging Arg-Gly) [Hydantoin(C(O)-(Arg-Gly))-c(Cys-D-Ala-His-D-Phe-Arg-Trp-Cys)-NH2],2.65,41.3,4.17,650

# From patent US20120135923A1, “Use of Melanocortins to Treat Dyslipidemia” (IPSEN PHARMA, S.A.S., priority 2009, published 2012)
